Assay results from patent publication US20200277374A1 (Alector, published 2020).

Tests used:
[1] = biological target: T1, human Siglec-7 expressed on human cells (primary monocytes, dendritic cells, macrophages, NK cells, … (human, UniProt Q9Y286 19-467)); experiment: cell-based or functional assay
[2] = biological target: T1, human Siglec-7 expressed on human cells …; experiment: cell-based or functional assay; remark: listed apart in the source
[3] = biological target: T1, human Siglec-7 expressed on human cells …; experiment: FACS, human primary monocytes, 10 ug/ml mAb
[4] = biological target: T1, human Siglec-7 expressed on human cells …; experiment: FACS titration on primary human dendritic cells, donor 358, 4 C
Description: (§1) Two Siglec-7 antibodies, 4E3 and 10B5, were titrated 2-fold for a 12-point curve with a concentration range of 6.67-0.00325 nM to assess binding and calculate half-maximal concentration (EC₅₀) for binding to primary human dendritic cells (FIG. 5B). Antibodies were serially diluted and incubated with cells in PBS with 1% BSA, 1 mM EDTA for 1 hour on ice (4° C.). Cells were pelleted and resuspended with goat anti-mouse secondary antibody conjugated with APC (BD Biosciences) at a 1:200 dilution in buffer. Secondary detection antibody was incubated for 30 minutes on ice (4° C.), then cells were washed 3 times in buffer before analyzing on a BD FACS Canto for APC MR. Data were analyzed with FlowJo Software (TreeStar).

[5] = biological target: T1, human Siglec-7 expressed on human cells …; experiment: FACS titration on primary human dendritic cells, donor 359, 4 C
Description: as §1

[6] = biological target: T2, Siglec-7-Fc (plate immobilized) (human, UniProt Q9Y286 19-357, limits assumed); experiment: RBC solid adhesion assay, plate-coated Siglec-7-Fc, antibody 0.5 or 1.0 ug/ml; % of RBC binding without antibody
T2 construct: also called Siglec-7-Fc protein; immobilized Siglec-7; not shown: Fc part
How it was run: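 Plates coated overnight at RT with 5 μg/ml Siglec-7-Fc and blocked in PBS with BSA and 1 mM CaCl₂. Antibody (0.5 or 1.0 μg/ml) bound 1 h at RT, then RBCs (3.0×10⁶ cells/ml) added for 1 h at RT. Bound RBCs lysed and detected by peroxidase at 450 nm, expressed as % of binding without antibody.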

[7] = biological target: T3, Histidine-tagged human Siglec-7 (NovoProtein) (human, UniProt Q9Y286 19-357, limits assumed); experiment: SPR (BiaCore T200, 25 C), antibody captured on anti-mouse IgG, Siglec-7-His 100 nM, single-concentration kinetics
T3 construct: Bought protein; also called purified Siglec-7-his tagged protein; not shown: histidine tag
Description: SPR data was collected at a rate of 10 Hz at 25′ C on a BiaCore T200 instrument. Data analysis was performed using BiaCore T200 Evaluation Software, version 2.0. HBS-EP+ (100 mM HEPES, 1.5 M NaCl, 30 mM EDTA, 0.5% v/v Surfactant P20, pH 7.4) was used as running buffer and for preparing reagents.
Mouse-derived antibodies (25 nM) against Siglec-7 were captured (60 s contact time, 30 μL/min flow rate, 0 s stabilization time) on a CM5 sensor chip (GE Healthcare) immobilized with anti-mouse IgG. Histidine-tagged human Siglec-7 (NovoProtein) was then flowed over the captured anti-Siglec-7 surface (120 s contact time, 30 μL/min flow rate, 300 s dissociation time). Concentration of antigen ranged from 5 nM to 100 nM, depending on information obtained from an initial screen. Duplicate single-concentration trials were performed and bracketed by a blank (0 nM antigen) sample. The chip surface was regenerated in between cycles using 10 mM glycine-HCl, pH1.7 (60 s contact time, 30 μL/min flow rate, 60 s stabilization time). The resulting SPR signal was obtained as the difference in response from measurements performed on a blank flow cell.
Affinity constants (KD) were calculated from the ratio kd/kₐ. For one antibody (clone 1E8), we validated the single-concentration analysis with a multiple-concentration approach (five concentrations of antigen used, plus one blank).

T1 sequence (Q9Y286 19-467): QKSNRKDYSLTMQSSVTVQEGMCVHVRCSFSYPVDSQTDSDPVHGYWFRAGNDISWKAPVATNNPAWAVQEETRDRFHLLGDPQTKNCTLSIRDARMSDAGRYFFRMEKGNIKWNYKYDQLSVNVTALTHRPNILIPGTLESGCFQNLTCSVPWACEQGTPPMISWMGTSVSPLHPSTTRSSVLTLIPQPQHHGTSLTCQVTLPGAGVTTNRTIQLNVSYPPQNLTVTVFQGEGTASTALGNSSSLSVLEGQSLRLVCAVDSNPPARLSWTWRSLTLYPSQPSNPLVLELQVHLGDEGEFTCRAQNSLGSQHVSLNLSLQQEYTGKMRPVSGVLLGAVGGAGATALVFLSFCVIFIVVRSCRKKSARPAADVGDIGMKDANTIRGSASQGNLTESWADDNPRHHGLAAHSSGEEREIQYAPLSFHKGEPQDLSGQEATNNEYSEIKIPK
T3 sequence (Q9Y286 19-357 limits assumed): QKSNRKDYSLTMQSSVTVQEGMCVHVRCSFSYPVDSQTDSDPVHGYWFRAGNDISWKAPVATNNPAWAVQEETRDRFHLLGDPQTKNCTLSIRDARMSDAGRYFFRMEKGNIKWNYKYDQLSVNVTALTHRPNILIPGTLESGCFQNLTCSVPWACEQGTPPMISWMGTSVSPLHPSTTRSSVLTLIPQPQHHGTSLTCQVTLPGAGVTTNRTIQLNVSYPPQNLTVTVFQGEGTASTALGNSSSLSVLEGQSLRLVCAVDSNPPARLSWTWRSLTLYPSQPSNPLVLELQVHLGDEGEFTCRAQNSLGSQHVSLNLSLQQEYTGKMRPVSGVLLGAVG
T2 sequence (Q9Y286 19-357 limits assumed): as above

B1: anti-Siglec-7 antibody 10B5 (antibody, V domains shown)
VH: QVHLQQSGPELVKPGASVKISCKASGYAFTNCWMNWVRQRPGKGLDWIGRIFPGNGHTNYSGKFKDKATLTEDKSSSTAYMQLSSLTSEDSAVYFCARDYSDYYFDYWGQGTTLTVSS
VL: DVQMTQTTSSLSASLGDRVTISCRASQDINTYLNWYQQKPDGTVKLLIYYTSRLHSGVPSRFSGSGSGTDYSLTISNLEQEDIATYFCQQGNTLPWTFGGGTKLEIK
notes: that light chain holds several Z and differs in its CDRs from S7-10B5.1 / 10B5L1; also called S7-10B5; mAb S7-10B5
Percent Siglec-7 Surface Expression, DCs [1]: 16.8%
Percent Siglec-7 Surface Expression, Monocytes [1]: 6.7%
Percent Siglec-7 Surface Expression, U937 cells [1]: 36.5%
EC50 of Siglec-7 cell surface downregulation, primary human dendritic cells, donor 362 [2]: 0.144 nM
EC50 of Siglec-7 cell surface downregulation, primary human dendritic cells, donor 363 [2]: 0.35 nM
EC50 of Siglec-7 cell surface downregulation, primary human dendritic cells, donor 364 [2]: 0.103 nM
EC50 of Siglec-7 cell surface downregulation, primary human dendritic cells, donor 365 [2]: 0.0713 nM
% Positive [3]: 99.2%
MFI [3]: 417
EC50 [4]: 1.43 nM
EC50 [5]: 1.16 nM
Percent RBC Binding to Siglec-7 [6]: 88.4%
Kd [7]: 3 nM
